Assay results as given in FireProtDB (doi:10.1002/prot.1088).
“And” between values parts separate entries of the source, which are not always exact repeats. Equal entries are not always repeated.

B1: Lysozyme C, P61626 (parent)
chain: MKALIVLGLVLLSVTVQGKVFERCELARTLKRLGMDGYRGISLANWMCLAKWESGYNTRATNYNAGDRSTDYGIFQINSRYWCNDGKTPGAVNACHLSCSALLQDNIADAVACAKRVVRDPQGIRAWVAWRNRCQNRDVRQYVQGCGV

Variants of: B1
Conditions: Homo sapiens; pH 2.5; Thermal; DSC; Gly-HCl 0.05 M; reversible: yes; structure 1LZ1; whole UniProt chain shown

Variant	Tm	unfolding enthalpy (calorimetric)	unfolding enthalpy (van 't Hoff)
MKALIVLGLVLLSVTVQGKVFERCELARTLKRLGMDGYRGISLANWMCLAKWESGGNTRATNYNAGDRSTDYGIFQINSRYWCNDGKTPGAVNACHLSCSALLQDNIADAVACAKRVVRDPQGIRAWVAWRNRCQNRDVRQYVQGCGV [Y56G]	53 °C	85.8 kcal/mol	87 kcal/mol
MKALIVLGLVLLSVTVQGKVFERCELARTLKRLGMDGYGGISLANWMCLAKWESGYNTRATNYNAGDRSTDYGIFQINSRYWCNDGKTPGAVNACHLSCSALLQDNIADAVACAKRVVRDPQGIRAWVAWRNRCQNRDVRQYVQGCGV [R39G]	64.6 °C	102 kcal/mol	107 kcal/mol
MKALIVLGLVLLSVTVQGKVFERCELARTLKRLGMDGYRGISLANWMCLAKWESGYNTRATNYNAGDRSTDYGIFQINSRYWCNDGKTPGAVNACALSCSALLQDNIADAVACAKRVVRDPQGIRAWVAWRNRCQNRDVRQYVQGCGV [H96A]	61.1 °C	97.5 kcal/mol	107 kcal/mol

Same assay, conditions: Homo sapiens; pH 2.7; 64.9 °C; Thermal; DSC; Gly-HCl 0.05 M; reversible: yes; structure 1LZ1; whole UniProt chain shown

Variant	ddG of mutation (higher = less stable)
MKALIVLGLVLLSVTVQGKVFERCELARTLKRLGMDGYRGISLANWMCLAKWESGGNTRATNYNAGDRSTDYGIFQINSRYWCNDGKTPGAVNACHLSCSALLQDNIADAVACAKRVVRDPQGIRAWVAWRNRCQNRDVRQYVQGCGV [Y56G]	2.32 kcal/mol
MKALIVLGLVLLSVTVQGKVFERCELARTLKRLGMDGYRGISLANWMCLAKWESGANTRATNYNAGDRSTDYGIFQINSRYWCNDGKTPGAVNACHLSCSALLQDNIADAVACAKRVVRDPQGIRAWVAWRNRCQNRDVRQYVQGCGV [Y56A]	2.49 kcal/mol
MKALIVLGLVLLSVTVQGKVFERCELARTLKRLGMDGYGGISLANWMCLAKWESGYNTRATNYNAGDRSTDYGIFQINSRYWCNDGKTPGAVNACHLSCSALLQDNIADAVACAKRVVRDPQGIRAWVAWRNRCQNRDVRQYVQGCGV [R39G]	-1.15 kcal/mol
MKALIVLGLVLLSVTVQGKVFERCELARTLKRLGMDGYRGISLANWMCLAKWESGYNTRATNYNAGDRSTDYGIFQINSRYWCNDGKTPGAVNACALSCSALLQDNIADAVACAKRVVRDPQGIRAWVAWRNRCQNRDVRQYVQGCGV [H96A]	0.14 kcal/mol

Same assay, conditions: Homo sapiens; pH 2.7; Thermal; DSC; Gly-HCl 0.05 M; reversible: yes; structure 1LZ1; whole UniProt chain shown

Variant	Tm	change of melting temperature, mutant - wild type (higher = more stable)	heat capacity change of unfolding	unfolding enthalpy (calorimetric)	unfolding enthalpy (van 't Hoff)
MKALIVLGLVLLSVTVQGKVFERCELARTLKRLGMDGYRGISLANWMCLAKWESGGNTRATNYNAGDRSTDYGIFQINSRYWCNDGKTPGAVNACHLSCSALLQDNIADAVACAKRVVRDPQGIRAWVAWRNRCQNRDVRQYVQGCGV [Y56G]	56.7 °C	-8.2 °C	0.96 kcal/mol/K	96.8 kcal/mol	
MKALIVLGLVLLSVTVQGKVFERCELARTLKRLGMDGYRGISLANWMCLAKWESGANTRATNYNAGDRSTDYGIFQINSRYWCNDGKTPGAVNACHLSCSALLQDNIADAVACAKRVVRDPQGIRAWVAWRNRCQNRDVRQYVQGCGV [Y56A]	56 °C	-8.9 °C	0.98 kcal/mol/K	96.8 kcal/mol	
MKALIVLGLVLLSVTVQGKVFERCELARTLKRLGMDGYGGISLANWMCLAKWESGYNTRATNYNAGDRSTDYGIFQINSRYWCNDGKTPGAVNACHLSCSALLQDNIADAVACAKRVVRDPQGIRAWVAWRNRCQNRDVRQYVQGCGV [R39G]	68.6 °C	3.7 °C	1.74 kcal/mol/K	103 kcal/mol	
MKALIVLGLVLLSVTVQGKVFERCELARTLKRLGMDGYAGISLANWMCLAKWESGYNTRATNYNAGDRSTDYGIFQINSRYWCNDGKTPGAVNACHLSCSALLQDNIADAVACAKRVVRDPQGIRAWVAWRNRCQNRDVRQYVQGCGV [R39A]	69.4 °C	4.5 °C	1.82 kcal/mol/K	96.6 kcal/mol	
MKALIVLGLVLLSVTVQGKVFERCELARTLKRLGMDGYRGISLANWMCLAKWESGYNTRATNYNAGDRSTDYGIFQINSRYWCNDGKTPGAVNACALSCSALLQDNIADAVACAKRVVRDPQGIRAWVAWRNRCQNRDVRQYVQGCGV [H96A]	64.3 °C and 64.4 °C	-0.5 °C	1.51 kcal/mol/K	103 kcal/mol	112 kcal/mol

Same assay, conditions: Homo sapiens; pH 2.78; Thermal; DSC; Gly-HCl 0.05 M; reversible: yes; structure 1LZ1; whole UniProt chain shown

Variant	Tm	unfolding enthalpy (calorimetric)	unfolding enthalpy (van 't Hoff)
MKALIVLGLVLLSVTVQGKVFERCELARTLKRLGMDGYRGISLANWMCLAKWESGGNTRATNYNAGDRSTDYGIFQINSRYWCNDGKTPGAVNACHLSCSALLQDNIADAVACAKRVVRDPQGIRAWVAWRNRCQNRDVRQYVQGCGV [Y56G]	58.5 °C	90.1 kcal/mol	92.3 kcal/mol

Same assay, conditions: Homo sapiens; pH 3.24; Thermal; DSC; Gly-HCl 0.05 M; reversible: yes; structure 1LZ1; whole UniProt chain shown

Variant	Tm	unfolding enthalpy (calorimetric)	unfolding enthalpy (van 't Hoff)
MKALIVLGLVLLSVTVQGKVFERCELARTLKRLGMDGYRGISLANWMCLAKWESGGNTRATNYNAGDRSTDYGIFQINSRYWCNDGKTPGAVNACHLSCSALLQDNIADAVACAKRVVRDPQGIRAWVAWRNRCQNRDVRQYVQGCGV [Y56G]	65.6 °C	97.8 kcal/mol	99.7 kcal/mol

Same assay, conditions: Homo sapiens; pH 2.72; Thermal; DSC; Gly-HCl 0.05 M; reversible: yes; structure 1LZ1; whole UniProt chain shown

Variant	Tm	unfolding enthalpy (calorimetric)	unfolding enthalpy (van 't Hoff)
MKALIVLGLVLLSVTVQGKVFERCELARTLKRLGMDGYRGISLANWMCLAKWESGANTRATNYNAGDRSTDYGIFQINSRYWCNDGKTPGAVNACHLSCSALLQDNIADAVACAKRVVRDPQGIRAWVAWRNRCQNRDVRQYVQGCGV [Y56A]	56.3 °C	88 kcal/mol	89.2 kcal/mol

Same assay, conditions: Homo sapiens; pH 3; Thermal; DSC; Gly-HCl 0.05 M; reversible: yes; structure 1LZ1; whole UniProt chain shown

Variant	Tm	unfolding enthalpy (calorimetric)	unfolding enthalpy (van 't Hoff)
MKALIVLGLVLLSVTVQGKVFERCELARTLKRLGMDGYRGISLANWMCLAKWESGANTRATNYNAGDRSTDYGIFQINSRYWCNDGKTPGAVNACHLSCSALLQDNIADAVACAKRVVRDPQGIRAWVAWRNRCQNRDVRQYVQGCGV [Y56A]	61.7 °C	94.4 kcal/mol	96.3 kcal/mol
MKALIVLGLVLLSVTVQGKVFERCELARTLKRLGMDGYRGISLANWMCLAKWESGYNTRATNYNAGDRSTDYGIFQINSRYWCNDGKTPGAVNACALSCSALLQDNIADAVACAKRVVRDPQGIRAWVAWRNRCQNRDVRQYVQGCGV [H96A]	69.5 °C	110 kcal/mol	117 kcal/mol

Same assay, conditions: Homo sapiens; pH 3.18; Thermal; DSC; Gly-HCl 0.05 M; reversible: yes; structure 1LZ1; whole UniProt chain shown

Variant	Tm	unfolding enthalpy (calorimetric)	unfolding enthalpy (van 't Hoff)
MKALIVLGLVLLSVTVQGKVFERCELARTLKRLGMDGYRGISLANWMCLAKWESGANTRATNYNAGDRSTDYGIFQINSRYWCNDGKTPGAVNACHLSCSALLQDNIADAVACAKRVVRDPQGIRAWVAWRNRCQNRDVRQYVQGCGV [Y56A]	65 °C	96.3 kcal/mol	97.5 kcal/mol

Same assay, conditions: Homo sapiens; pH 2.69; Thermal; DSC; Gly-HCl 0.05 M; reversible: yes; structure 1LZ1; whole UniProt chain shown

Variant	Tm	unfolding enthalpy (calorimetric)	unfolding enthalpy (van 't Hoff)
MKALIVLGLVLLSVTVQGKVFERCELARTLKRLGMDGYGGISLANWMCLAKWESGYNTRATNYNAGDRSTDYGIFQINSRYWCNDGKTPGAVNACHLSCSALLQDNIADAVACAKRVVRDPQGIRAWVAWRNRCQNRDVRQYVQGCGV [R39G]	68.2 °C	109 kcal/mol	113 kcal/mol

Same assay, conditions: Homo sapiens; pH 2.81; Thermal; DSC; Gly-HCl 0.05 M; reversible: yes; structure 1LZ1; whole UniProt chain shown

Variant	Tm	unfolding enthalpy (calorimetric)	unfolding enthalpy (van 't Hoff)
MKALIVLGLVLLSVTVQGKVFERCELARTLKRLGMDGYGGISLANWMCLAKWESGYNTRATNYNAGDRSTDYGIFQINSRYWCNDGKTPGAVNACHLSCSALLQDNIADAVACAKRVVRDPQGIRAWVAWRNRCQNRDVRQYVQGCGV [R39G]	70.9 °C	113 kcal/mol	116 kcal/mol

Same assay, conditions: Homo sapiens; pH 2.51; Thermal; DSC; Gly-HCl 0.05 M; reversible: yes; structure 1LZ1; whole UniProt chain shown

Variant	Tm	unfolding enthalpy (calorimetric)	unfolding enthalpy (van 't Hoff)
MKALIVLGLVLLSVTVQGKVFERCELARTLKRLGMDGYAGISLANWMCLAKWESGYNTRATNYNAGDRSTDYGIFQINSRYWCNDGKTPGAVNACHLSCSALLQDNIADAVACAKRVVRDPQGIRAWVAWRNRCQNRDVRQYVQGCGV [R39A]	66.1 °C	98.7 kcal/mol	107 kcal/mol

Same assay, conditions: Homo sapiens; pH 2.71; Thermal; DSC; Gly-HCl 0.05 M; reversible: yes; structure 1LZ1; whole UniProt chain shown

Variant	Tm	unfolding enthalpy (calorimetric)	unfolding enthalpy (van 't Hoff)
MKALIVLGLVLLSVTVQGKVFERCELARTLKRLGMDGYAGISLANWMCLAKWESGYNTRATNYNAGDRSTDYGIFQINSRYWCNDGKTPGAVNACHLSCSALLQDNIADAVACAKRVVRDPQGIRAWVAWRNRCQNRDVRQYVQGCGV [R39A]	69.8 °C	106 kcal/mol	113 kcal/mol

Same assay, conditions: Homo sapiens; pH 3.23; Thermal; DSC; Gly-HCl 0.05 M; reversible: yes; structure 1LZ1; whole UniProt chain shown

Variant	Tm	unfolding enthalpy (calorimetric)	unfolding enthalpy (van 't Hoff)
MKALIVLGLVLLSVTVQGKVFERCELARTLKRLGMDGYAGISLANWMCLAKWESGYNTRATNYNAGDRSTDYGIFQINSRYWCNDGKTPGAVNACHLSCSALLQDNIADAVACAKRVVRDPQGIRAWVAWRNRCQNRDVRQYVQGCGV [R39A]	77.6 °C	120 kcal/mol	129 kcal/mol
